Measured values taken from ChEMBL document CHEMBL1134320, “Structure of protein tyrosine phosphatase 1B in complex with inhibitors bearing two phosphotyrosine mimetics” (J Med Chem, 2001).

Substrate: O=P(O)(O)c1ccc(Cc2ccc(P(=O)(O)O)cc2)cc1
Test: Binding affinity towards the binding site of human protein tyrosine phosphatase 1B (PTP1B) enzyme expressed in Escherichia coli cells

B1: Tyrosine-protein phosphatase non-receptor type 1 (Homo sapiens), P18031 (protein)
chain: MEMEKEFEQIDKSGSWAAIYQDIRHEASDFPCRVAKLPKNKNRNRYRDVSPFDHSRIKLHQEDNDYINASLIKMEEAQRSYILTQGPLPNTCGHFWEMVWEQKSRGVVMLNRVMEKGSLKCAQYWPQKEEKEMIFEDTNLKLTLISEDIKSYYTVRQLELENLTTQETREILHFHYTTWPDFGVPESPASFLNFLFKVRESGSLSPEHGPVVVHCSAGIGRSGTFCLADTCLLLMDKRKDPSSVDIKKVLLEMRKFRMGLIQTADQLRFSYLAVIEGAKFIMGDSSVQDQWKELSHEDLEPPPEHIPPPPRPPKRILEPHNGKCREFFPNHQWVKEETQEDKDCPIKEEKGSPLNAAPYGIESMSQDTEVRSRVVGGSLRGAQAASPAKGEPSLPEKDEDHALSYWKPFLVNMCVATVLTAGAYLCYRFLFNSNT
  Km: 16 µM
